Results reported in patent WO2009147196A1 (dated 2009).

Biological target: Rev of the HIV-1 NL4.3 molecular clone (HIV-1)
Experiment: cell-based or functional assay

B1: Nb_190 expressed intracellularly (pcDNA3.1-Nb_190; HIV-1 NL4.3-Nb_190) (VHH)
VHH: QVQLQESGGGLVQAGGSLRLSCAASGSIFSINTMGWYRQAPGKQRELVAFATSGGSTNYPDSVKGRFTISRDNVKNTVYLQMNSLKPEDTAVYYCNIDGFLGSLYKDYWSQGTQVTVSS
virus production (p24) from the HIV-1 NL4.3-Nb_190 clone in HEK 293T cells: 300 fold reduction
